Laboratory results reported in article PMC3571956.

Key:
[1] = target: HEV ORF3 and GFP1 fusion protein (genotype 1) (hepatitis E virus genotype 1 (W2-1 strain)); assay: co-IP; Matchmaker Chemiluminescent Co-IP System; 293FT cells co-transfected with pAcGFP1-ORF3 and pProLabel-prey, lysed at 48 h; precipitated with anti-AcGFP (GFP1) polyclonal antibody; ProLabel chemiluminescence (RLU) read on the beads
[2] = target: HEV ORF3 and GFP1 fusion protein (genotype 1) (hepatitis E virus genotype 1 (W2-1 strain)); assay: co-IP; Matchmaker Chemiluminescent Co-IP System; 293FT cells co-transfected with pAcGFP1-ORF3 and pProLabel-prey, lysed at 48 h; precipitated with anti-HEV ORF3 polyclonal antibody; ProLabel chemiluminescence (RLU) read on the beads; three independent tests

B1: Hemopexin, ProLabel fusion (natural protein)
chain: TPLPPTSAHGNVAEGETKPDPDVTERCSDGWSFDATTLDDNGTMLFFKGEFVWKSHKWDRELISERWKNFPSPVDAAFRQGHNSVFLIKGDKVWVYPPEKKEKGYPKLLQDEFPGIPSPLDAAVECHRGECQAEGVLFFQGDREWFWDLATGTMKERSWPAVGNCSSALRWLGRYYCFQGNQFLRFDPVRGEVPPRYPRDVRDYFMPCPGRGHGHRNGTGHGNSTHHGPEYMRCSPHLVLSALTSDNHGATYAFSGTHYWRLDTSRDGWHSWPIAHQWPQGPSAVDAAFSWEEKLYLVQGTQVYVFLTKGGYTLVSGYPKRLEKEVGTPHGIILDSVDAAFICPGSSRLHIMAGRRLWWLDLKSGAQATWTELPWPHEKVDGALCMEKSLGPNSCSANGPGLYLIHGPNLYCYSDVEKLNAAKALPQPQNVTSLLGCTH
B1 gave a chemiluminescent intensity [1] of 614 RLU and a chemiluminescent intensity [2] of 1140 RLU.
